Laboratory results: PMC8236860, “Regulation of Dual Activity of Ascorbate Peroxidase 1 From Arabidopsis thaliana by Conformational Changes and Posttranslational Modifications” (Frontiers in Plant Science, 2021)

Biological target: the molecule itself
Assay: native gel or EMSA; 10% native-PAGE of purified recombinant AtAPX1 (total protein, SEC fractions F1-F3, and protein treated with GSNO, NaHS or SIN-1)

Protein | stoichiometry N | binding result
Cytosol type APX1 from Arabidopsis thaliana (AtAPX1), recombinant (enzyme, UniProt Q05431 1-250, looked up, Ascorbate peroxidase 1, cytosolic (AtAPX1), Arabidopsis thaliana; 27 kDa on SDS-PAGE; Heme enzyme; also called ascorbate peroxidase 1; recombinant AtAPX1 protein; source: E. coli BL21 (DE3), pET28a, purified (Ni-NTA, thrombin cleavage of the His-tag, SEC)) MTKNYPTVSEDYKKAVEKCRRKLRGLIAEKNCAPIMVRLAWHSAGTFDCQSRTGGPFGTMRFDAEQAHGANSGIHIALRLLDPIREQFPTISFADFHQLAGVVAVEVTGGPDIPFHPGREDKPQPPPEGRLPDATKGCDHLRDVFAKQMGLSDKDIVALSGAHTLGRCHKDRSGFEGAWTSNPLIFDNSYFKELLSGEKEGLLQLVSDKALLDDPVFRPLVEKYAADEDAFFADYAEAHMKLSELGFADA | 2 | –
S-nitrosylated recombinant AtAPX1 (GSNO-treated) (enzyme, Arabidopsis thaliana, UniProt Q05431 1-250, looked up, S-nitrosylation of cysteine (GSNO treatment); positions not determined in this paper, Ascorbate peroxidase 1, cytosolic (AtAPX1), Arabidopsis thaliana; same construct as m1; not mapped here; also called S-nitrosylated APX1; GSNO-treated AtAPX1; source: E. coli BL21 (DE3), purified, then incubated with GSNO (0-1 mM) at 25°C for 30 min in the dark) MTKNYPTVSEDYKKAVEKCRRKLRGLIAEKNCAPIMVRLAWHSAGTFDCQSRTGGPFGTMRFDAEQAHGANSGIHIALRLLDPIREQFPTISFADFHQLAGVVAVEVTGGPDIPFHPGREDKPQPPPEGRLPDATKGCDHLRDVFAKQMGLSDKDIVALSGAHTLGRCHKDRSGFEGAWTSNPLIFDNSYFKELLSGEKEGLLQLVSDKALLDDPVFRPLVEKYAADEDAFFADYAEAHMKLSELGFADA | – | binds
S-sulfhydrated recombinant AtAPX1 (NaHS-treated) (enzyme, Arabidopsis thaliana, UniProt Q05431 1-250, looked up, S-sulfhydration of cysteine (NaHS treatment); positions not determined in this paper, Ascorbate peroxidase 1, cytosolic (AtAPX1), Arabidopsis thaliana; same construct as m1; not mapped here; also called NaHS-treated AtAPX1; source: E. coli BL21 (DE3), purified, then incubated with NaHS (10 nM-100 μM) at 4°C for 30 min in the dark) MTKNYPTVSEDYKKAVEKCRRKLRGLIAEKNCAPIMVRLAWHSAGTFDCQSRTGGPFGTMRFDAEQAHGANSGIHIALRLLDPIREQFPTISFADFHQLAGVVAVEVTGGPDIPFHPGREDKPQPPPEGRLPDATKGCDHLRDVFAKQMGLSDKDIVALSGAHTLGRCHKDRSGFEGAWTSNPLIFDNSYFKELLSGEKEGLLQLVSDKALLDDPVFRPLVEKYAADEDAFFADYAEAHMKLSELGFADA | – | binds
Tyrosine-nitrated recombinant AtAPX1 (SIN-1-treated) (enzyme, Arabidopsis thaliana, UniProt Q05431 1-250, looked up, tyrosine nitration (SIN-1 treatment); positions not determined in this paper, Ascorbate peroxidase 1, cytosolic (AtAPX1), Arabidopsis thaliana; same construct as m1; also called SIN-1-treated protein; source: E. coli BL21 (DE3), purified, then incubated with SIN-1 (0-10 mM) at 37°C for 1 h in the dark) MTKNYPTVSEDYKKAVEKCRRKLRGLIAEKNCAPIMVRLAWHSAGTFDCQSRTGGPFGTMRFDAEQAHGANSGIHIALRLLDPIREQFPTISFADFHQLAGVVAVEVTGGPDIPFHPGREDKPQPPPEGRLPDATKGCDHLRDVFAKQMGLSDKDIVALSGAHTLGRCHKDRSGFEGAWTSNPLIFDNSYFKELLSGEKEGLLQLVSDKALLDDPVFRPLVEKYAADEDAFFADYAEAHMKLSELGFADA | – | binds
